± gives the standard error. This sample holds only a part of the variants without activity.
B1: glmS ribozyme (parent)
chain: AUAAAAGCGCCAGAACUACAGAAAUGUAGUUGACGAGGAGGAGGUUUAUCGAAUUUUCGGCGGAUGCCUCCAAA

Columns and labels:
Details in all cases: with glucosamine-6-phosphate
glucosamine-6-phosphate [1] = variants of: B1; assay: self-cleavage kobs at 40 uM GlcN6P; higher = faster cleavage; RNA array
Method in brief: (§1)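 Tiles of sequenced MiSeq chips were imaged over ~14 h at 37 °C. On them, barcoded ribozyme variants had been transcribed in situ by E. coli RNA polymerase and were tracked via a hybridised Cy3 probe while glucosamine-6-phosphate (40 μM to 10 mM) in HEPES/KCl/Mg(OAc)2 buffer flowed in. Per-tile medians, normalised to baseline and to non-cleaving reference variants, were fit to one- or two-exponential decays for kobs, and weighted Michaelis–Menten fits gave kcat and KM.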

glucosamine-6-phosphate [2] = variants of: B1; assay: self-cleavage kobs at 640 uM GlcN6P; higher = faster cleavage; RNA array
Method in brief: as §1

glucosamine-6-phosphate [3] = variants of: B1; assay: self-cleavage kobs at 2500 uM GlcN6P; higher = faster cleavage; RNA array
Method in brief: as §1

glucosamine-6-phosphate [4] = variants of: B1; assay: self-cleavage kobs at 10000 uM GlcN6P; higher = faster cleavage; RNA array
Method in brief: as §1

glucosamine-6-phosphate [5] = variants of: B1; assay: self-cleavage kobs at 160 uM GlcN6P; higher = faster cleavage; RNA array
Method in brief: as §1

| Variant | self-cleavage kobs at 40 uM GlcN6P (glucosamine-6-phosphate [1]) [s⁻¹] | self-cleavage kobs at 640 uM GlcN6P (glucosamine-6-phosphate [2]) [s⁻¹] | self-cleavage kobs at 2500 uM GlcN6P (glucosamine-6-phosphate [3]) [s⁻¹] | self-cleavage kobs at 10000 uM GlcN6P (glucosamine-6-phosphate [4]) [s⁻¹] | self-cleavage kobs at 160 uM GlcN6P (glucosamine-6-phosphate [5]) [s⁻¹] |
| --- | --- | --- | --- | --- | --- |
| C10U C11G C16A C50G | 9.19e-05 ± 2.5e-05 | 0.000376 ± 9.9e-05 | 0.000168 ± 3.4e-05 | 8e-05 ± 2.2e-05 | – |
| C11A G13C A53U C58G A64U U69A | 7.02e-05 ± 2.7e-05 | – | – | – | – |
| C10U G32A G43A C71A | < 1e-05 | – | – | – | – |
| G9U C68A | < 1e-05 | – | < 1e-05 | < 1e-05 | < 1e-05 |
| C10U U31C G32C U49A G51U G60C | < 1e-05 | – | – | – | – |
| C10G G29A | < 1e-05 | < 1e-05 | – | < 1e-05 | – |
| C11A C16G A36U G40A U55A U56A | < 1e-05 | – | – | < 1e-05 | – |
| C11G C16A U69G | 6.17e-05 ± 2.3e-05 | – | – | 5.6e-05 ± 1.7e-05 | – |
| G9U C10U A36U G51A C70G | < 1e-05 | – | – | – | – |
| C10A A14G G44C | < 1e-05 | – | < 1e-05 | < 1e-05 | – |
| C10A A39U | < 1e-05 | < 1e-05 | – | < 1e-05 | < 1e-05 |
| C10U A48C | < 1e-05 | < 1e-05 | < 1e-05 | < 1e-05 | < 1e-05 |
| G9C C70A | < 1e-05 | < 1e-05 | – | < 1e-05 | < 1e-05 |
| G9U A14C | < 1e-05 | < 1e-05 | – | – | < 1e-05 |
| C10A C34A G38U | < 1e-05 | – | – | – | – |
| C10U A12U G51U U56A | < 1e-05 | – | – | < 1e-05 | – |
| C10A U45G G63U | < 1e-05 | – | – | < 1e-05 | – |
| C10A C11U A36U C70U C71G | 0.000371 ± 9.5e-05 | 0.000527 ± 0.00015 | – | 0.000335 ± 6.3e-05 | – |
| G9U A36G | < 1e-05 | – | < 1e-05 | < 1e-05 | – |
| C10U U47A G62U A64U U69A | < 1e-05 | – | – | – | – |
| G9C G37A G60C U65A | < 1e-05 | – | < 1e-05 | – | – |
| G9U G62C | < 1e-05 | – | – | < 1e-05 | < 1e-05 |
| C11A G41C | < 1e-05 | < 1e-05 | < 1e-05 | – | < 1e-05 |
| C11A G38U C67G C68U | 0.000296 ± 7.3e-05 | – | – | 0.000394 ± 9.3e-05 | – |
| C10A C16A G41U | < 1e-05 | – | – | < 1e-05 | – |
| C11A G32U A42G | < 1e-05 | – | – | – | – |

| Variant | self-cleavage kobs at 40 uM GlcN6P (glucosamine-6-phosphate [1]) [s⁻¹] | self-cleavage kobs at 640 uM GlcN6P (glucosamine-6-phosphate [2]) [s⁻¹] | self-cleavage kobs at 2500 uM GlcN6P (glucosamine-6-phosphate [3]) [s⁻¹] | self-cleavage kobs at 10000 uM GlcN6P (glucosamine-6-phosphate [4]) [s⁻¹] | self-cleavage kobs at 160 uM GlcN6P (glucosamine-6-phosphate [5]) [s⁻¹] |
| --- | --- | --- | --- | --- | --- |
| C10U A64U | < 1e-05 | < 1e-05 | < 1e-05 | < 1e-05 | < 1e-05 |
| C10U A64C | < 1e-05 | < 1e-05 | < 1e-05 | – | – |
| C10G G41U | < 1e-05 | < 1e-05 | < 1e-05 | < 1e-05 | < 1e-05 |
| G9U U31A C34U | < 1e-05 | – | – | – | < 1e-05 |
| G9U G40U G44C G60U | < 1e-05 | – | – | < 1e-05 | – |
| C11G G38A | < 1e-05 | < 1e-05 | < 1e-05 | – | – |
| C10A G43A U45C | < 1e-05 | – | – | – | – |
| C11A G38A G44C | < 1e-05 | – | – | < 1e-05 | – |
| C10A A39U U69C | < 1e-05 | – | – | < 1e-05 | – |
| C10G G59C | < 1e-05 | < 1e-05 | – | – | – |
| C10A G37C A42C C70A | < 1e-05 | – | – | – | – |
| C10U A12G U46A U47G U49G | < 1e-05 | – | – | – | – |
| C10G G35C G40A U57G | < 1e-05 | – | < 1e-05 | – | – |
| C10U A14G U55C A64G G66U | < 1e-05 | – | – | – | – |
| C10U A33C | < 1e-05 | < 1e-05 | < 1e-05 | – | < 1e-05 |
| C10G G29A A48G | < 1e-05 | – | – | – | – |
| C10U G37C G66A | < 1e-05 | – | – | – | – |
| C11G G37C U55A C68G | < 1e-05 | 0.000386 ± 0.00018 | – | – | – |
| C10U A14C C61U | < 1e-05 | – | – | < 1e-05 | – |
| G9C U31G | < 1e-05 | < 1e-05 | < 1e-05 | – | < 1e-05 |
| C11A C70G | 2.86e-05 ± 1.2e-05 | 0.00013 ± 2.5e-05 | 5.3e-05 ± 1.3e-05 | 3.06e-05 ± 1.1e-05 | 4.84e-05 ± 2e-05 |
| C10A A53G G60C | < 1e-05 | – | – | – | – |
| C10A C16A G51U C68G C71A | 7.7e-05 ± 2e-05 | 0.00052 ± 0.00016 | – | 8.53e-05 ± 1.6e-05 | – |
| C11G A48U | < 1e-05 | < 1e-05 | – | < 1e-05 | < 1e-05 |
| G9C U46C | < 1e-05 | < 1e-05 | – | < 1e-05 | – |

— the supplement of paper PMC7125110
